The values below come from patent US7056731 (MAYO FOUNDATION FOR MEDICAL EDUCATION AND RESEARCH, dated 2006).

The data set concerns the molecule itself. Briefly: gel filtration chromatography through Sephadex G-100 (self-association / homodimerization). The procedure: Gel Filtration Chromatography: Gel filtration chromatography of recombinant human SULT2A1 was performed at 4° C. with a 2×25 cm column of Sephadex G-100 superfine. The mobile phase was 5 mM K phosphate buffer, pH 7.5, and 3 ml fractions were collected at a flow rate of approximately 1.8 mL per h. The fractions were assayed for SULT2A1 activity. Standards for column calibration were eluted separately and included Dextran Blue 2000, bovine serum albumin (67 kDa), ovalbumin (45 kDa), chymotrypsinogen A ([…]) and ribonuclease A (13.7 kDa).
The Ala261 Thr polymorphism is located within the dimerization motif at the C-terminus of the conserved 'Region IV' SULT signature sequence, and may alter the formation of the SULT2A1 homodimer. To test that hypothesis, recombinant WT and codon Thr261 variant allozyme preparations were subjected to gel filtration chromatography through Sephadex G-100.
(In gel filtration, larger molecules generally elute earlier.)

B1: wild type SULT2A1 polypeptide (reference human SULT2A1) (enzyme)
chain: MSDDFLWFEGIAFPTMGFRSETLRKVRDEFVIRDEDVIILTYPKSGTNWLAEILCLMHSKGDAKWIQSVPIWERSPWVESEIGYTALSESESPRLFSSHLPIQLFPKSFFSSKAKVIYLMRNPRDVLVSGYFFWKNMKFIKKPKSWEEYFEWFCQGTVLYGSWFDHIHGWMPMREEKNFLLLSYEELKQDTGRTIEKICQFLGKTLEPEELNLILKNSSFQSMKENKMSNYSLLSVDYVVDKAQLLRKGVSGDWKNHFTVAQAEDFDKLFQEKMADLPRELFPWE
notes: Recombinant protein expressed in COS-1 cells from pCR3.1 and used as an unpurified high speed supernatant cytosol preparation; The pair written here is its self-association into the homodimer; also called WT; WT enzyme
Consider B1, for which the binding result is “binds”.

B2: SULT2A1 Ala261Thr allozyme (enzyme)
chain: MSDDFLWFEGIAFPTMGFRSETLRKVRDEFVIRDEDVIILTYPKSGTNWLAEILCLMHSKGDAKWIQSVPIWERSPWVESEIGYTALSESESPRLFSSHLPIQLFPKSFFSSKAKVIYLMRNPRDVLVSGYFFWKNMKFIKKPKSWEEYFEWFCQGTVLYGSWFDHIHGWMPMREEKNFLLLSYEELKQDTGRTIEKICQFLGKTLEPEELNLILKNSSFQSMKENKMSNYSLLSVDYVVDKAQLLRKGVSGDWKNHFTVTQAEDFDKLFQEKMADLPRELFPWE
notes: Recombinant variant made by site directed mutagenesis and expressed in COS-1 cells from pCR3.1; It was used as an unpurified cytosol preparation; also called codon Thr261 variant allozyme
Turning to B2, the binding result is given as “no binding”.
